# Laboratory results as given in US20180155451A1 (published 2018).
# T1: FcγRIIa H (human, UniProt P12318 34-217)
# T1 construct: extracellular domain; also called FcgRIIa H type; 2aH; not shown: His tag at the C terminus
# T1 sequence (looked up): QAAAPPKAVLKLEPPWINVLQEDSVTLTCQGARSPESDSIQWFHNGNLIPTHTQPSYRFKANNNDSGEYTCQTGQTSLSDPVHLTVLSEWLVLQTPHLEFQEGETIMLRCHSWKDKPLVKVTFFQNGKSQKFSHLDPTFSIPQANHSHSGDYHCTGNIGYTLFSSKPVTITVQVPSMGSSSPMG
# Target: T1, FcγRIIa H
# Test: SPR Biacore, relative binding
row,He/Con_2aH,Binder
1,106 % of GpH7-A5/GpH7-B3/GpL16-k0 (=100),"GpH7-A5/GpH7-B3 variant I336_08L/GpL16-k0 (antibody, human IgG1, kappa, also called He Ab I336_08L) heavy 1: not shown heavy 2: not shown light: DIVMTQSPLSLPVTPGEPASISCQASESLVHSNRNTYLHWYLQKPGQSPQLLIYKVSNRFSGVPDRFSGSGSGTDFTLKISRVEAEDVGVYYCSQNTHVPPTFGQGTKVEIERTVAAPSVFIFPPSDEQLKSGTASVVCLLNNFYPREAKVQWKVDNALQSGNSQESVTEQDSKDSTYSLSSTLTLSKADYEKHKVYACEVTHQGLSSPVTKSFNRGEC"
2,109 % of GpH7-A5/GpH7-B3/GpL16-k0 (=100),"GpH7-A5/GpH7-B3 variant K334_03V/GpL16-k0 (antibody, human IgG1, kappa, also called He Ab K334_03V) heavy 1: not shown heavy 2: not shown light: DIVMTQSPLSLPVTPGEPASISCQASESLVHSNRNTYLHWYLQKPGQSPQLLIYKVSNRFSGVPDRFSGSGSGTDFTLKISRVEAEDVGVYYCSQNTHVPPTFGQGTKVEIERTVAAPSVFIFPPSDEQLKSGTASVVCLLNNFYPREAKVQWKVDNALQSGNSQESVTEQDSKDSTYSLSSTLTLSKADYEKHKVYACEVTHQGLSSPVTKSFNRGEC"
3,114 % of GpH7-A5/GpH7-B3/GpL16-k0 (=100),"GpH7-A5/GpH7-B3 variant K326_14T/GpL16-k0 (antibody, human IgG1, kappa, also called He Ab K326_14T) heavy 1: not shown heavy 2: not shown light: DIVMTQSPLSLPVTPGEPASISCQASESLVHSNRNTYLHWYLQKPGQSPQLLIYKVSNRFSGVPDRFSGSGSGTDFTLKISRVEAEDVGVYYCSQNTHVPPTFGQGTKVEIERTVAAPSVFIFPPSDEQLKSGTASVVCLLNNFYPREAKVQWKVDNALQSGNSQESVTEQDSKDSTYSLSSTLTLSKADYEKHKVYACEVTHQGLSSPVTKSFNRGEC"
4,104 % of GpH7-A5/GpH7-B3/GpL16-k0 (=100),"GpH7-A5/GpH7-B3 variant K334_16H/GpL16-k0 (antibody, human IgG1, kappa, also called He Ab K334_16H) heavy 1: not shown heavy 2: not shown light: DIVMTQSPLSLPVTPGEPASISCQASESLVHSNRNTYLHWYLQKPGQSPQLLIYKVSNRFSGVPDRFSGSGSGTDFTLKISRVEAEDVGVYYCSQNTHVPPTFGQGTKVEIERTVAAPSVFIFPPSDEQLKSGTASVVCLLNNFYPREAKVQWKVDNALQSGNSQESVTEQDSKDSTYSLSSTLTLSKADYEKHKVYACEVTHQGLSSPVTKSFNRGEC"
5,103 % of GpH7-A5/GpH7-B3/GpL16-k0 (=100),"GpH7-A5/GpH7-B3 variant K326_06M/GpL16-k0 (antibody, human IgG1, kappa, also called He Ab K326_06M) heavy 1: not shown heavy 2: not shown light: DIVMTQSPLSLPVTPGEPASISCQASESLVHSNRNTYLHWYLQKPGQSPQLLIYKVSNRFSGVPDRFSGSGSGTDFTLKISRVEAEDVGVYYCSQNTHVPPTFGQGTKVEIERTVAAPSVFIFPPSDEQLKSGTASVVCLLNNFYPREAKVQWKVDNALQSGNSQESVTEQDSKDSTYSLSSTLTLSKADYEKHKVYACEVTHQGLSSPVTKSFNRGEC"
6,102 % of GpH7-A5/GpH7-B3/GpL16-k0 (=100),"GpH7-A5/GpH7-B3 variant K326_10E/GpL16-k0 (antibody, human IgG1, kappa, also called He Ab K326_10E) heavy 1: not shown heavy 2: not shown light: DIVMTQSPLSLPVTPGEPASISCQASESLVHSNRNTYLHWYLQKPGQSPQLLIYKVSNRFSGVPDRFSGSGSGTDFTLKISRVEAEDVGVYYCSQNTHVPPTFGQGTKVEIERTVAAPSVFIFPPSDEQLKSGTASVVCLLNNFYPREAKVQWKVDNALQSGNSQESVTEQDSKDSTYSLSSTLTLSKADYEKHKVYACEVTHQGLSSPVTKSFNRGEC"
7,103 % of GpH7-A5/GpH7-B3/GpL16-k0 (=100),"GpH7-A5/GpH7-B3 variant K334_14T/GpL16-k0 (antibody, human IgG1, kappa, also called He Ab K334_14T) heavy 1: not shown heavy 2: not shown light: DIVMTQSPLSLPVTPGEPASISCQASESLVHSNRNTYLHWYLQKPGQSPQLLIYKVSNRFSGVPDRFSGSGSGTDFTLKISRVEAEDVGVYYCSQNTHVPPTFGQGTKVEIERTVAAPSVFIFPPSDEQLKSGTASVVCLLNNFYPREAKVQWKVDNALQSGNSQESVTEQDSKDSTYSLSSTLTLSKADYEKHKVYACEVTHQGLSSPVTKSFNRGEC"
8,118 % of GpH7-A5/GpH7-B3/GpL16-k0 (=100),"GpH7-A5/GpH7-B3 variant L235_20W/GpL16-k0 (antibody, human IgG1, kappa, also called He Ab L235_20W) heavy 1: not shown heavy 2: not shown light: DIVMTQSPLSLPVTPGEPASISCQASESLVHSNRNTYLHWYLQKPGQSPQLLIYKVSNRFSGVPDRFSGSGSGTDFTLKISRVEAEDVGVYYCSQNTHVPPTFGQGTKVEIERTVAAPSVFIFPPSDEQLKSGTASVVCLLNNFYPREAKVQWKVDNALQSGNSQESVTEQDSKDSTYSLSSTLTLSKADYEKHKVYACEVTHQGLSSPVTKSFNRGEC"
9,102 % of GpH7-A5/GpH7-B3/GpL16-k0 (=100),"GpH7-A5/GpH7-B3 variant Q295_07I/GpL16-k0 (antibody, human IgG1, kappa, also called He Ab Q295_07I) heavy 1: not shown heavy 2: not shown light: DIVMTQSPLSLPVTPGEPASISCQASESLVHSNRNTYLHWYLQKPGQSPQLLIYKVSNRFSGVPDRFSGSGSGTDFTLKISRVEAEDVGVYYCSQNTHVPPTFGQGTKVEIERTVAAPSVFIFPPSDEQLKSGTASVVCLLNNFYPREAKVQWKVDNALQSGNSQESVTEQDSKDSTYSLSSTLTLSKADYEKHKVYACEVTHQGLSSPVTKSFNRGEC"
10,110 % of GpH7-A5/GpH7-B3/GpL16-k0 (=100),"GpH7-A5/GpH7-B3 variant K334_07I/GpL16-k0 (antibody, human IgG1, kappa, also called He Ab K334_07I) heavy 1: not shown heavy 2: not shown light: DIVMTQSPLSLPVTPGEPASISCQASESLVHSNRNTYLHWYLQKPGQSPQLLIYKVSNRFSGVPDRFSGSGSGTDFTLKISRVEAEDVGVYYCSQNTHVPPTFGQGTKVEIERTVAAPSVFIFPPSDEQLKSGTASVVCLLNNFYPREAKVQWKVDNALQSGNSQESVTEQDSKDSTYSLSSTLTLSKADYEKHKVYACEVTHQGLSSPVTKSFNRGEC"
11,101 % of GpH7-A5/GpH7-B3/GpL16-k0 (=100),"GpH7-A5/GpH7-B3 variant K326_19Q/GpL16-k0 (antibody, human IgG1, kappa, also called He Ab K326_19Q) heavy 1: not shown heavy 2: not shown light: DIVMTQSPLSLPVTPGEPASISCQASESLVHSNRNTYLHWYLQKPGQSPQLLIYKVSNRFSGVPDRFSGSGSGTDFTLKISRVEAEDVGVYYCSQNTHVPPTFGQGTKVEIERTVAAPSVFIFPPSDEQLKSGTASVVCLLNNFYPREAKVQWKVDNALQSGNSQESVTEQDSKDSTYSLSSTLTLSKADYEKHKVYACEVTHQGLSSPVTKSFNRGEC"
